Values of other authors in PMC6121496.
pKd, pKi: −log10 of the molar value. Where “and” joins values, the source holds several entries; their conditions need not be identical. Equal values may be shown once. Read-outs that look alike come from different tables or passages of the source.

Key:
[1] = target: KPC-2 beta-lactamase (Klebsiella pneumoniae) (UniProt Q9F663)
[2] = target: TEM-1 beta-lactamase (Escherichia coli) (UniProt P62593)
[3] = target: TEM-1 beta-lactamase (Escherichia coli) (UniProt P62593); remark: listed apart in the source
[4] = target: TEM-1 beta-lactamase (Escherichia coli) (UniProt P62593); remark: listed apart in the source
[5] = target: TEM-1 beta-lactamase (Escherichia coli) (UniProt P62593); remark: listed apart in the source
[6] = target: TEM-1 beta-lactamase (Escherichia coli) (UniProt P62593); remark: listed apart in the source
[7] = target: TEM-1 beta-lactamase (Escherichia coli) (UniProt P62593); experiment: SPR
[8] = target: TEM-1 beta-lactamase (Escherichia coli) (UniProt P62593); experiment: SPR; remark: listed apart in the source
[9] = target: CTX-M14 beta-lactamase (Escherichia coli); experiment: enzyme inhibition
[10] = target: KPC-3 beta-lactamase (Klebsiella pneumoniae) (UniProt Q9F663); experiment: enzyme inhibition
[11] = target: PC1 beta-lactamase (Staphylococcus aureus) (UniProt P00807); experiment: enzyme inhibition
Chain of UniProt P00807 (P00807 25-281): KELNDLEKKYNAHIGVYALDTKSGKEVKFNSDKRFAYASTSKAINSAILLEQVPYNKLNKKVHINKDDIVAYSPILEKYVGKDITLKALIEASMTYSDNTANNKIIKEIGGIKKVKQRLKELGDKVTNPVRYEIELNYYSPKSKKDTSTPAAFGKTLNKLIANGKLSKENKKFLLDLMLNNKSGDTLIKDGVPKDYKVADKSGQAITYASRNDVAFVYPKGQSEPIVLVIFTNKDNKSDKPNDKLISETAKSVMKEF

[12] = target: SHV-1 beta-lactamase (Klebsiella pneumoniae) (UniProt P0AD64); experiment: enzyme inhibition
Chain of UniProt P0AD64 (P0AD64 22-286): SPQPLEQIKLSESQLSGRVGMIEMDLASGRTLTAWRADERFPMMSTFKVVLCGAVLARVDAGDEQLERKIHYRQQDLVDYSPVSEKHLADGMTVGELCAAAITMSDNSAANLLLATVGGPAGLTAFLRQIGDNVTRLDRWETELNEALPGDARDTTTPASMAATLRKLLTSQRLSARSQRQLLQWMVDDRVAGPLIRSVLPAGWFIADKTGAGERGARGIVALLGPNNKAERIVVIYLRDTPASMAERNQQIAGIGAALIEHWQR

[13] = target: SME-1 beta-lactamase (Serratia marcescens) (UniProt P52682); experiment: enzyme inhibition
Chain of UniProt P52682 (P52682 28-294): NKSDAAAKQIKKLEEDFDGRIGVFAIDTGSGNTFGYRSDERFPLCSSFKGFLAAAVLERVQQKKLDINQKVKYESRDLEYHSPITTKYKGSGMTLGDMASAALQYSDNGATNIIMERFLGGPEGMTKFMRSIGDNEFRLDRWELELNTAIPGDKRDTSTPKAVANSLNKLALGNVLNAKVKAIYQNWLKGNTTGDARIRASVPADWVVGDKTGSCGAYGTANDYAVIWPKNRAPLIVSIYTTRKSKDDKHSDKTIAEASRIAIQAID

[14] = target: PC1 beta-lactamase (Staphylococcus aureus) (UniProt P00807); experiment: stopped flow fluorometry, ITC
[15] = target: TEM-1 beta-lactamase (Escherichia coli) (UniProt P62593); remark: listed apart in the source
[16] = target: TEM-1 beta-lactamase (Escherichia coli) (UniProt P62593); remark: listed apart in the source

Chain of UniProt P62593 (P62593 24-286): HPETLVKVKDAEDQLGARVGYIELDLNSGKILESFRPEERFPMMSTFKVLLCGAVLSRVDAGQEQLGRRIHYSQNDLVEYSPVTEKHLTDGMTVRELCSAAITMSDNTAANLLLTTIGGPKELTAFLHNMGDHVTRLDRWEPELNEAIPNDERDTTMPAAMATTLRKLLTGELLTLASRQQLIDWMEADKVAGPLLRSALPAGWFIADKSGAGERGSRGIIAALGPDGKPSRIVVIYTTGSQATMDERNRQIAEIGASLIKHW

In the case of BLIP (from UniProt P35804), the pKi [1] is given as 8.92, the pKi [2] is given as 9.40 and the pKd [3] is given as 8.89 and 8.77. For the same substance, the pKi [4] was 9.30, the pKd [5] was 9.52 and the pKd [6] was 9.40. For the same substance, the pKd [7] was 8.90, the pKd [8] was 7.82 and the pKi [9] was 6.09. For the same substance, the pKi [10] was 9.60, the pKi [11] was 6.46 and the pKd [12] was 5.90. For the same substance, the pKi [12] was 5.96 and 5.95, the pKi [13] was 8.62 and the pKd [14] was 6.42.

In the case of “BLIP peptide 30-49 (from UniProt P35804)”, the pKi [15] is listed as 3.45.

In the case of BLIP peptide (from UniProt P35804), the pKi [16] is listed as 4.24.
